Experimental findings from patent US20240350544A1 (Takeda / Millennium, published 2024) are described below.

What is called koff is a measure of how fast the partners let go of each other. Read a high koff as fast dissociation. The term Kd denotes the concentration at which binding is half-saturated. Read a low Kd as tighter binding. A word on the kon: it is the second-order rate constant of association. Low values mean slower complex formation, high ones faster complex formation. The term EC50 denotes the concentration at which the effect is half-maximal. Low values mean a more potent agent, high ones a less potent agent.

For assay [1], the target named is Bio-cyBCMA-His (biotinylated cynomolgus BCMA with His tag) (cynomolgus). Description: ELISA, scFv periplasmic extract on biotinylated cynomolgus BCMA-His. On the technique in general: In an ELISA, binding on a coated surface is turned into a signal by an enzyme label.
Assay [2] deals with T1, human BCMA protein (Octet; construct not stated) (human, UniProt Q02223 1-54, limits assumed).
T1 sequence: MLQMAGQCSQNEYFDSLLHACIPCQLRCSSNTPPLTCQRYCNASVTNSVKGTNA
The assay can be described thus: Octet (BLI), scFv periplasmic extract, human BCMA captured on sensor tips. Background: In BLI a coated tip is dipped into the sample, and binding shifts an interference pattern.

In assay [3] the target is T2, hBCMA-mIgG2a (human; mouse, UniProt Q02223 1-54, limits assumed).
T2 construct: not shown: mouse IgG2a portion ('mIgG2a')
T2 sequence: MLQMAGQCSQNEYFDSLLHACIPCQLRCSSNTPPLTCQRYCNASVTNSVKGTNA
The assay can be described thus: Octet (BLI), hBCMA-mIgG2a captured on sensor tips.

Assay [4] deals with T3, human BCMA on BCMA overexpressing CHO cells (human, UniProt Q02223 1-184).
T3 construct: also called hBCMA CHO; Hu BCMA (FACS)
T3 chain: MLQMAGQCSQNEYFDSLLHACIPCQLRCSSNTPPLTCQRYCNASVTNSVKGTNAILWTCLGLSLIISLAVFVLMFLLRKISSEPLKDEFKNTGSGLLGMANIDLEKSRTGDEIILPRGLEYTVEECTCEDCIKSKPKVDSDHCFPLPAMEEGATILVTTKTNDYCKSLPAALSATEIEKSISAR
Description: flow cytometry on human BCMA overexpressing CHO cells. In general terms: In flow cytometry, cells or beads pass a laser one at a time.

Assay [5] has as its target T4, hBCMA-HIS antigen (human, UniProt Q02223 1-54).
T4 construct: It may be the same protein as Bio-huBCMA-His without, or with, biotin; also called human BCMA-6His; not shown: His tag
T4 sequence: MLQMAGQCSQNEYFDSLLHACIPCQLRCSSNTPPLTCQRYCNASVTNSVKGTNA
Description: Octet (BLI), hBCMA-HIS antigen captured on sensor tips.

Chain of Bio-cyBCMA-His (biotinylated cynomolgus BCMA with His tag) (cynomolgus) (chain, as listed by the source): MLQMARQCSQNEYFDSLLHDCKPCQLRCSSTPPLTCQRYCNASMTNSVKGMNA

B1: anti-BCMA scFv clone from phage display, first row of Table 3 (VH …..., VL with LCDR3 …) (scFv, V domains shown)
VH: QITLRESGGDVVQPGRSLRLSCAASGFTFSSYAIHWVRQAPGKGLEWVAVTWHDGSNKYYAESVMGRFTISRDNSKNTLYLHMNSLRAEDTGVYYCARAKFGEPQYFQHWGQGTLVTVSS
VL: DIVMTQSPSFLSASVGDRVTITCRASQGISSYLAWYQQKPGKAPKLLIYAASTLQSGVPSRFSGSGSGTEFTLTISSLQPEDFATYYCQQLNSYPWTFGQGTKVDIK
B1: the PE Elisa Bio-cyBCMA-His in assay [1] was determined as 0.147.

B2: anti-BCMA scFv clone from phage display, third row of Table 3 (VH …..., VL with LCDR3 …) (scFv, V domains shown)
VH: EVQLVESGGDVVQPGRSLRLSCAASGFTFSSYAIHWVRQAPGKGLEWVAVTWHDGSNKYYAESVMGRFTISRDNSKNTLYLHMNSLRAEDTGVYYCARAKFGEPQYFQHWGQGTTVTVSS
VL: DIVMTQSPSFLSASVGDRVTITCRASQGISSYLAWYQQKPGKAPKLLIYAASTLQSGVPSRFSGSGSGTEFTLTISSLQPEDFATYYCQQLNSYPFTFGPGTKVDIK
As to B2, in assay [1], the PE Elisa Bio-cyBCMA-His was 0.126.

B3: anti-BCMA scFv clone from phage display, second row of Table 3 (VH …..., VL with LCDR3 …) (scFv, V domains shown)
VH: QITLRESGGDVVQPGRSLRLSCAASGFTFSSYAIHWVRQAPGKGLEWVAVTWHDGSNKYYAESVMGRFTISRDNSKNTLYLHMNSLRAEDTGVYYCARAKFGEPQYFQHWGQGTLVTVSS
VL: DIVMTQSPSFLSASVGDRVTITCRASQGINNYLAWYQQKPGIAPKLLIYAASTLQSGVPSRFGGSGSGTEFTLTISSLQPEDFATYYCQQLKSYPFTFGPGTKVEIK
B3 yielded a PE Elisa Bio-cyBCMA-His in assay [1] of 0.122.

B4: anti-BCMA scFv clone from phage display, first row of Table 3 (VH QITLRESGG..., VL with LCDR3 QQLNSYPWT) (scFv, V domains shown)
VH: QITLRESGGDVVQPGRSLRLSCAASGFTFSSYAIHWVRQAPGKGLEWVAVTWHDGSNKYYAESVMGRFTISRDNSKNTLYLHMNSLRAEDTGVYYCARAKFGEPQYFQHWGQGTLVTVSS
VL: DIVMTQSPSFLSASVGDRVTITCRASQGISSYLAWYQQKPGKAPKLLIYAASTLQSGVPSRFSGSGSGTEFTLTISSLQPEDFATYYCQQLNSYPWTFGQGTKVDIK
notes: Tested as scFv in periplasmic extract; also called Ab 1
With B4, in assay [2], the koff is 0.000369 s⁻¹.

B5: Ab 2, lead anti-BCMA clone of Table 4 (antibody, V domains shown)
VH: QITLRESGGDVVQPGRSLRLSCAASGFTFSSYAIHWVRQAPGKGLEWVAVTWHDGSNKYYAESVMGRFTISRDNSKNTLYLHMNSLRAEDTGVYYCARAKFGEPQYFQHWGQGTLVTVSS
VL: DIVMTQSPSFLSASVGDRVTITCRASQGINNYLAWYQQKPGIAPKLLIYAASTLQSGVPSRFGGSGSGTEFTLTISSLQPEDFATYYCQQLKSYPFTFGPGTKVEIK
B5: in assay [3], the Kd stood at 0.0117 nM, the koff is 4.44e-06 s⁻¹ and the on-rate (kon) is 379000 M⁻¹ s⁻¹. The molecule further returned an EC50 in assay [4] of 0.144 µg/mL. In assay [5], this molecule registered an equilibrium dissociation constant (Kd) of 0.0788 nM, an off-rate constant (koff) of 3.77e-05 s⁻¹ and a kon of 479000 M⁻¹ s⁻¹.

B6: Ab 3, lead anti-BCMA clone of Table 4 (antibody, V domains shown)
VH: EVQLVESGGDVVQPGRSLRLSCAASGFTFSSYAIHWVRQAPGKGLEWVAVTWHDGSNKYYAESVMGRFTISRDNSKNTLYLHMNSLRAEDTGVYYCARAKFGEPQYFQHWGQGTTVTVSS
VL: DIVMTQSPSFLSASVGDRVTITCRASQGISSYLAWYQQKPGKAPKLLIYAASTLQSGVPSRFSGSGSGTEFTLTISSLQPEDFATYYCQQLNSYPFTFGPGTKVDIK
As for B6, in assay [3], the Kd was below 0.001 nM, the koff was below 1e-07 s⁻¹ and the kon stood at 308000 M⁻¹ s⁻¹. Besides, a half-maximal response in assay [4] (EC50) required 0.117 µg/mL. In assay [5], this molecule gave a Kd of 0.0608 nM, a koff of 1.33e-05 s⁻¹ and a kon of 219000 M⁻¹ s⁻¹.
